In PMC8189969, “Interaction standards for biophysics: anti-lysozyme nanobodies” (European Biophysics Journal, 2021):

B1: Phage-B09 nanobody (VHH)
VHH: EVQLQASGGGFVQPGGSLRLSCAASGSTYRRSTMGWFRQAPGKEREFVSAISSDHSHPDYYADSVKGRFTISRDNSKNTVYLQMNSLRAEDTATYYCAFQYDSDKKSYWGQGTQVTVSS
notes: selected by phage display from the NaLi-H1 synthetic library (Hybrigenics); also called P-B09; source: E. coli T7-Express, purified (IMAC, Superdex-75)
B2: H04 nanobody (VHH)
VHH: EVQLLESGGGLVQPGGSLRLSCAASGFRFDAEDMGWVRQAPGKGLEWVSSIYGPSGSTYYADSVKGRFTISRDNSKNTLYLQMNSLRAEDTAVYYCAKYTSPPQNHGFDYWGQGTLVTVSS
notes: crystal structure with lysozyme PDB 4U3X (Rouet et al. 2015); CDR3 of 12 residues; Developed in Daniel Christ's group (Rouet et al. 2015); source: E. coli T7-Express, purified (IMAC, Superdex-75)
B3: H04 H106A nanobody (VHH)
VHH: EVQLLESGGGLVQPGGSLRLSCAASGFRFDAEDMGWVRQAPGKGLEWVSSIYGPSGSTYYADSVKGRFTISRDNSKNTLYLQMNSLRAEDTAVYYCAKYTSPPQNAGFDYWGQGTLVTVSS
notes: as the chain of m2 (H04) with H106A in CDR3; source: E. coli T7-Express, purified (IMAC, Superdex-75)
B4: Cab-Lys3 nanobody (VHH)
VHH: DVQLQASGGGSVQAGGSLRLSCAASGYTIGPYCMGWFRQAPGKEREGVAAINMGGGITYYADSVKGRFTISQDNAKNTVYLLMNSLEPEDTAIYYCAADSTIYASYYECGHGLSTGGYGYDSWGQGTQVTVSS
notes: crystal structure PDB 1XFP named for it (Muyldermans and Lauwereys 1999); CDR3 of 24 residues with an extra disulphide between CDR1 and CDR3; also called WT Cab-Lys3; source: E. coli T7-Express, purified (IMAC, Superdex-75)
B5: Cab-Lys3 T101S nanobody (VHH)
VHH: DVQLQASGGGSVQAGGSLRLSCAASGYTIGPYCMGWFRQAPGKEREGVAAINMGGGITYYADSVKGRFTISQDNAKNTVYLLMNSLEPEDTAIYYCAADSSIYASYYECGHGLSTGGYGYDSWGQGTQVTVSS
notes: as the chain of m6 (Cab-Lys3) with T101S in CDR3; source: E. coli T7-Express, purified (IMAC, Superdex-75)
B6: Cab-Lys3 S105N nanobody (VHH)
VHH: DVQLQASGGGSVQAGGSLRLSCAASGYTIGPYCMGWFRQAPGKEREGVAAINMGGGITYYADSVKGRFTISQDNAKNTVYLLMNSLEPEDTAIYYCAADSTIYANYYECGHGLSTGGYGYDSWGQGTQVTVSS
notes: as the chain of m6 (Cab-Lys3) with S105N in CDR3; source: E. coli T7-Express, purified (IMAC, Superdex-75)
B7: Phage-F07 nanobody (VHH)
VHH: EVQLQASGGGFVQPGGSLRLSCAASGTSSDLYDMGWFRQAPGKEREFVSAISGDDTQYTYYADSVKGRFTISRDNSKNTVYLQMNSLRAEDTATYYCAPRAHEPHGHWNYYWGQGTQVTVSS
notes: selected by phage display from the NaLi-H1 synthetic library (Hybrigenics); also called P-F07; source: E. coli T7-Express, purified (IMAC, Superdex-75)

How the values were obtained:
[1] = target: T1, hen egg white lysozyme (Gallus gallus (hen egg white), UniProt P00698); assay: ITC; Malvern PEAQ-ITC; 20 °C; PBS pH 7.4 with 0.005% tween 20; lysozyme in the cell and nanobody titrated (so in the source); nanobody 20 or 30 µM, lysozyme 200 or 300 µM; single site model; conditions: both partners purified
T1 construct: hen egg white lysozyme (HEWL), 14.5 kDa, monomeric; The source is named for ITC (Roche powder); also called HEWL; source: bought: Roche (HEWL lysozyme powder, > 95%)

[2] = target: T1, hen egg white lysozyme; assay: SPR; Biacore T200; lysozyme amine-coupled (EDC/NHS) to a CM5 chip, max 100 units; nanobody as analyte, multi-cycle kinetics; PBS with 0.01% tween20; 20 °C (row labels of Table 1); Langmuir 1:1 model; conditions: both partners purified
[3] = target: H04 nanobody; assay: SEC-MALS; Superdex-75 10/300, 0.75 ml/min, PBS pH 7.4; Wyatt Helios 18-angle photometer, QELS, Optilab TrEX
[4] = target: T1, hen egg white lysozyme; assay: SPR; Biacore T200; lysozyme amine-coupled (EDC/NHS) to a CM5 chip, max 100 units; nanobody as analyte, multi-cycle kinetics; PBS with 0.01% tween20; 20 °C (row labels of Table 1); Langmuir 1:1 model; conditions: both partners purified; remark: listed apart in the source
[5] = target: T1, hen egg white lysozyme; assay: ITC; Malvern PEAQ-ITC; 37 °C; PBS pH 7.4 with 0.005% tween 20; lysozyme in the cell and nanobody titrated (so in the source); single site model; conditions: both partners purified

T1 sequence (P00698 19-147): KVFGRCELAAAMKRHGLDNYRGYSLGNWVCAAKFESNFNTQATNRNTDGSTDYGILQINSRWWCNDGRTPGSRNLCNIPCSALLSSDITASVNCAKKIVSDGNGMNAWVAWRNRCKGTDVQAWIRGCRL

| Binder | Kd [1] [nM] | dH [1] [kcal/mol] | Kd [2] [nM] | koff [2] [s⁻¹] | kon [2] [M⁻¹ s⁻¹] | stoichiometry N [3] | Kd [4] [nM] | Kd [5] [nM] | dH [5] [kcal/mol] |
| --- | --- | --- | --- | --- | --- | --- | --- | --- | --- |
| B1 | 1430 | -14.5 | 1300 | 0.6 | 450000 |  |  |  |  |
| B2 | 24 | -17.6 | 19 | 0.0008 | 43000 | 2 |  |  |  |
| B3 | 296 | -17 | 124 | 0.056 | 450000 |  | ~250 |  |  |
| B4 | 27 | 1.6 | 5 | 0.0009 | 41000 |  |  | 5 | -4.02 |
| B5 | 113 | 3 | 135 | 0.029 | 160000 |  |  | 105 | -5.1 |
| B6 | 125 | 2.6 | 35 | 0.0028 | 79000 |  |  | 73 | -3.3 |
| B7 | 685 | -23.5 |  |  |  |  |  |  |  |
